Where a chain is given by its changes, count along the chain named. Where two headings read alike, the source gives them in different places.

Experiment [1] has as its target T1, human BCMA (full-length, on cells) (human, UniProt Q02223 1-184).
T1 sequence: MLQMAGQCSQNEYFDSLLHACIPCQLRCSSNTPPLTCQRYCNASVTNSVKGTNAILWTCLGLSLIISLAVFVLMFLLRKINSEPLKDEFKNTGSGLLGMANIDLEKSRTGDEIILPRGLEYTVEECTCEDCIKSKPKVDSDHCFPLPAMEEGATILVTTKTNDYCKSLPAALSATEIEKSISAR
Briefly: cell-based or functional assay.

The target of experiment [2] is T1, human BCMA (full-length, on cells). Briefly: flow cytometry, GS-CHO-hBCMA cells. In general terms: A flow cytometer gives signals particle by particle.
For experiment [3] the target is unchanged. Briefly: cell-based or functional assay. The source holds these as a separate data set.
For experiment [4] the target is unchanged. Briefly: flow cytometry, GS-CHO-hBCMA cells. The source holds these as a separate data set.
Experiment [5] has as its target T2, human GPRC5D (full-length, on cells) (human, UniProt Q9NZD1 1-345).
T2 construct: whole, on cells; Overexpressed on GS-CHO cells; also the GPRC5D of H929 and L363 myeloma cells in the killing assays; also called hGPRC5D; GS-CHO-hGPRC5D
The experiment in a line: flow cytometry, GS-CHO-hGPRC5D cells.

For the next experiment, the target named is T3, Cyno BCMA-His (cynomolgus monkey, UniProt A0A2K5UD97 1-53).
T3 construct: also called Cyno BCMA (ACRO BCA-C52H7); monkey BCMA
Briefly: BLI (Octet), 1:1 fit. On the technique in general: Biolayer interferometry detects binding as a change in optical thickness at a sensor tip.

A further experiment has as its target T4, human CD3E&G-His/Free (human, UniProt P07766 23-126; P09693 23-116).
T4 construct: Bought recombinant heterodimer; 'His/Free' as printed (one chain His-tagged); also called human CD3 E&G heterodimer
Briefly: BLI (Octet), 1:1 fit.

In a further experiment the target is T5, cyno CD3E&G-His/Free (cynomolgus monkey, UniProt Q95LI5 22-117; Q95LI7 23-113).
T5 construct: Bought recombinant heterodimer; also called monkey CD3 E&G
T5 sequence (looked up) 1: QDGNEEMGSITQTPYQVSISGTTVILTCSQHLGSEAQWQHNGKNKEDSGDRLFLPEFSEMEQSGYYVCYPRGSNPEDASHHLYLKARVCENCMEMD
T5 sequence (looked up) 2: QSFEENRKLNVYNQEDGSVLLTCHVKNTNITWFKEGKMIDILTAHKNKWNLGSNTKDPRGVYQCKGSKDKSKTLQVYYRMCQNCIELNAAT
Briefly: BLI (Octet), 1:1 fit.

Experiment [6] has as its target T2, human GPRC5D (full-length, on cells). The experiment in a line: cell-based or functional assay.
The target of experiment [7] is T6, cynomolgus monkey GPRC5D (full-length, on cells) (cynomolgus monkey, UniProt A0A2K5W6I7 1-300).
T6 construct: also called cynoGPRC5D; GS-CHO-cynoGPRC5D
The experiment in a line: flow cytometry, GS-CHO-cynoGPRC5D cells.

The target in experiment [8] is T7, cynomolgus monkey BCMA (full-length, on cells) (cynomolgus monkey, UniProt A0A2K5UD97 1-183).
T7 construct: whole, on cells; also called cynoBCMA; GS-CHO-cynoBCMA
Briefly: flow cytometry, GS-CHO-cynoBCMA cells.

Experiment [9] addresses T2, human GPRC5D (full-length, on cells). The experiment in a line: cell-based or functional assay. The source holds these as a separate data set.
The target in experiment [10] is T1, human BCMA (full-length, on cells). The experiment in a line: cell-based or functional assay. The source holds these as a separate data set.
Experiment [11] has as its target T2, human GPRC5D (full-length, on cells). Briefly: cell-based or functional assay. The source holds these as a separate data set.
Experiment [12] has the same target. The experiment in a line: flow cytometry, GS-CHO-hGPRC5D cells. The source holds these as a separate data set.
In experiment [13] the target is T1, human BCMA (full-length, on cells). Briefly: cell-based or functional assay. The source holds these as a separate data set.
Experiment [14] concerns the target T2, human GPRC5D (full-length, on cells). The experiment in a line: cell-based or functional assay. This is another data set of the same source.
The target of experiment [15] is T8, human CD3 (on Jurkat cells and human T cells) (human, UniProt P07766 23-207).
T8 construct: whole, on cells; the other chains of the complex on the cells are not described; also called CD3E
The experiment in a line: flow cytometry, human CD4 T cells.

A further experiment concerns the target T9, BCMA-R39A (on cells) (human, UniProt Q02223 1-184).
T9 construct: also called hBCMA-R39A; 293T-hBCMA-R39A
T9 chain: T1 sequence with R39A
The experiment in a line: flow cytometry on 293T and GS CHO cells (FIG. 2I, 2J).

The target of a further experiment is T10, BCMA-R27P (on cells) (human, UniProt Q02223 1-184).
T10 construct: also called hBCMA-R27P; 293T-hBCMA-R27P
T10 chain: T1 sequence with R27P
Described as above.

Experiment [16] addresses T8, human CD3 (on Jurkat cells and human T …). Briefly: flow cytometry, Jurkat cells.
For experiment [17] the target is unchanged. The experiment in a line: flow cytometry, human CD8 T cells.

T2 sequence (Q9NZD1 whole entry): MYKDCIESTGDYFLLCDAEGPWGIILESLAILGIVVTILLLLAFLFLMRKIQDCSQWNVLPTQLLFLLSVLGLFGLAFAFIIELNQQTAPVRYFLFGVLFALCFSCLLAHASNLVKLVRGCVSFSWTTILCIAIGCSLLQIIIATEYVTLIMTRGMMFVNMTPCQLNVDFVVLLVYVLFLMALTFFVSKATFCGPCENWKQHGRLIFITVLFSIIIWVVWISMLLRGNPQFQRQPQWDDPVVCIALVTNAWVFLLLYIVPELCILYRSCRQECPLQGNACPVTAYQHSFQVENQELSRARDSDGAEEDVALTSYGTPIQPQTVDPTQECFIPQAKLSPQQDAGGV
T4 sequence (P07766 23-126, chain 1 of 2): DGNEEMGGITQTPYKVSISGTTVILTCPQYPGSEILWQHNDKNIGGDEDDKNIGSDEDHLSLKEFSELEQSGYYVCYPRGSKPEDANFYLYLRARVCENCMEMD
T4 sequence (P09693 23-116, chain 2 of 2): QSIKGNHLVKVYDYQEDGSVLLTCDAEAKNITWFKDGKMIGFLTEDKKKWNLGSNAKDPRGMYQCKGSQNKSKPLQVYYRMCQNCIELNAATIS
T8 sequence (P07766 23-207): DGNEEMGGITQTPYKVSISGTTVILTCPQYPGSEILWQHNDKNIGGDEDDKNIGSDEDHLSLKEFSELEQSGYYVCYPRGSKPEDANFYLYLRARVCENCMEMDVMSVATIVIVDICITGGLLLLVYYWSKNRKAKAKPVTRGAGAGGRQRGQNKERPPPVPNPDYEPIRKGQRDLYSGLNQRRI
T3 sequence (A0A2K5UD97 entry or part of it): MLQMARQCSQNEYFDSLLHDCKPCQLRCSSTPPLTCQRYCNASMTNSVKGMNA
T6 sequence (A0A2K5W6I7 entry or part of it limits assumed, form in doubt): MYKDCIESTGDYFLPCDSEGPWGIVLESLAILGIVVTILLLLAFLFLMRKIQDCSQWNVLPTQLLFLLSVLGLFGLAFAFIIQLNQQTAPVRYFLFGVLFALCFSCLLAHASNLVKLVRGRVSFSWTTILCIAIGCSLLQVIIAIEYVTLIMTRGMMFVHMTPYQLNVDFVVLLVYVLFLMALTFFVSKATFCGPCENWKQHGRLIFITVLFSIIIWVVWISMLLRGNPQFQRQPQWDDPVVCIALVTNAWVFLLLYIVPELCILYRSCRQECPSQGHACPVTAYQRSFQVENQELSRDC
T7 sequence (A0A2K5UD97 entry or part of it): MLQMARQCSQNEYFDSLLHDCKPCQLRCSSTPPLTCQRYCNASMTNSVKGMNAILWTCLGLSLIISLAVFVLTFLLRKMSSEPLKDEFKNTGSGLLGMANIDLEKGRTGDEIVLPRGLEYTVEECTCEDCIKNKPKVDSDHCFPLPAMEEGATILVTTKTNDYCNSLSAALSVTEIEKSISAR

B1: F2 (87) (F2-SP34.87-SC38497) (trispecific antibody, human IgG1, kappa, lambda, L234A L235A)
heavy 1: not shown
light 1: DIVMTQSPDSLAVSLGERATINCRASESVDSYGITFMNWYQQKPGQPPKLLIYAASNQGSGVPDRFSGSGSGTDFTLTISSLQAEDVAVYYCQQSKEVPWTFGQGTKLEIKRTVAAPSVFIFPPSDEQLKSGTASVVCLLNNFYPREAKVQWKVDNALQSGNSQESVTEQDSKDSTYSLSSTLTLSKADYEKHKVYACEVTHQGLSSPVTKSFNRGEC
heavy 2: EVQLVESGGGLVQPGGSLKLSCAASGFTFNTYAMNWVRQASGKGLEWVGRIRSKYNNYATYYADSVKDRFTISRDDSKSTLYLQMNSLKTEDTAVYYCARHYNFGQSYVSWFAYWGQGTTVTVSSASTKGPSVFPLAPSSKSTSGGTAALGCLVKDYFPEPVTVSWNSGALTSGVHTFPAVLQSSGLYSLSSVVTVPSSSLGTQTYICNVNHKPSNTKVDKKVEPKSCDKTHTCPPCPAPEAAGGPSVFLFPPKPKDTLMISRTPEVTCVVVDVSHEDPEVKFNWYVDGVEVHNAKTKPREEQYNSTYRVVSVLTVLHQDWLNGKEYKCKVSNKALPAPIEKTISKAKGQPREPQVYTLPPSRDELTKNQVSLSCAVKGFYPSDIAVEWESNGQPENNYKTTPPVLDSDGSFFLVSKLTVDKSRWQQGNVFSCSVMHEALHNHYTQKSLSLSPGAGGGGSGGGGSDIQMTQSPSSLSASVGDRVTITCRASQSISRYLNWYQQKPGKAPKLLIYAASSLQSGVPSRFSGSGSGTDFTLTISSLQPEDFATYYCQQKYFDITFGCGTKVEIKGGGGSGGGGSGGGGSQLQLQESGPGLVKPSETLSLTCTVSGGSIVSSSYYWTWIRQPPGKCLEWIGSISIAGSTYYNPSLKSRVTISVDTSKNQFSLKLSSVTAADTAVYYCARDRGDQILDVWSQGTMVTVSS
light 2: QAVVTQEPSLTVSPGGTVTLTCRSSTGAVTTSNYANWVQQKPGQAPRGLIGGTNKRAPGVPARFSGSLLGDKAALTLLGAQPEDEAEYYCALWYSNLWVFGQGTKLTVLGQPKAAPSVTLFPPSSEELQANKATLVCLISDFYPGAVTVAWKADSSPVKAGVETTTPSKQSNNKYAASSYLSLTPEQWKSHRSYSCQVTHEGSTVEKTVAPTECS
As for B1, the “EC50 of PBMC killing of H929 ko GPRC5D cells (LDH)” value in experiment [1] was 0.428 nM; in [3], 0.0677 nM. For the same molecule, the EC50 in experiment [2] was 120 nM; in experiment [4] it was 211 nM; in [5] it was 94.1 nM; in experiment [7], 196 nM; in [8] it was 117 nM; in experiment [12], 98.6 nM. In addition, the dissociation constant Kd worked out at 1.55 nM with Cyno BCMA-His, 55 nM with human CD3E&G-His/Free and 71.1 nM with cyno CD3E&G-His/Free. For the same molecule, the values for the koff in the experiment with Cyno BCMA-His, in the experiment with human CD3E&G-His/Free and with cyno CD3E&G-His/Free were 0.000961 s⁻¹, 0.0131 s⁻¹ and 0.0124 s⁻¹, respectively. The kon worked out at 621000 M⁻¹ s⁻¹ in the experiment with Cyno BCMA-His, 239000 M⁻¹ s⁻¹ with human CD3E&G-His/Free and 175000 M⁻¹ s⁻¹ with cyno CD3E&G-His/Free. Further, in experiment [6], the “EC50 of PBMC killing of H929 ko BCMA cells, donor1” value was 0.0342 nM. For the same molecule, the “EC50 of PBMC killing of H929 ko BCMA cells (LDH)” value in experiment [9] worked out at 0.0256 nM; in experiment [11], 0.00739 nM. Moreover, the “EC50 of PBMC killing of H929 ko GPRC5D cells, donor1” value in experiment [10] was 0.0304 nM.

B2: Inno-B (Hel_sp34.24_497_triFab) (trispecific antibody, human IgG1, kappa, lambda, L234A L235A)
heavy 1: not shown
light 1: not shown
heavy 2: not shown
light 2: DIQMTQSPSSLSASVGDRVTITCRASQSISRYLNWYQDKPGKAPKLLIYAASSLQSGVPSRFSGSGSGTDFTLTISSLQPEDFATYYCQQKYFDITFGGGTKVEIKRTVAAPSVFIFPPSDECLKSGTASVVCLLNNFYPREAKVQWKVDNALQSGNSQESVTEQDSKDSTYSLSSTLTLSKADYEKHKVYACEVTHQGLSSPVTKSFNRGES
light 3: B1 light 2 with Q40K
B2: in experiment [13], the “EC50 of PBMC killing of L363 cells” value came to 0.192 nM.

B3: Inno-G (hz5E12_sp34.24_Hel_triFab) (trispecific antibody, human IgG1, kappa, lambda, L234A L235A)
heavy 1: not shown
light 1: B1 light 1
heavy 2: not shown
light 2: DIQMTQSPSSLSASVGDRVTITCRASQSISSYLNWYQDKPGKAPKLLIYAASSLQSGVPSRFSGSGSGTDFTLTISSLQPEDFATYYCQQADLPAFAFGGGTKVEIKRTVAAPSVFIFPPSDECLKSGTASVVCLLNNFYPREAKVQWKVDNALQSGNSQESVTEQDSKDSTYSLSSTLTLSKADYEKHKVYACEVTHQGLSSPVTKSFNRGES
light 3: B1 light 2 with Q40K
Regarding B3, in [14], the “EC50 of PBMC killing of L363 cells” value amounted to 0.355 nM.

B4: Inno-G-7F5.3 (trispecific antibody, human IgG1, kappa, lambda, L234A L235A)
heavy 1: not shown
light 1: not shown
heavy 2: not shown
light 2: B3 light 2
light 3: B1 light 2 with Q40K
As for B4, the “EC50 of PBMC killing of L363 cells” value in experiment [14] came out at 1.07 nM.

B5: B3 (24) (hz5E12_sp34.24_497_triFab) (trispecific antibody, human IgG1, kappa, lambda, L234A L235A)
heavy 1: not shown
light 1: B1 light 1
heavy 2: not shown
light 2: B2 light 2
light 3: B1 light 2 with Q40K
notes: also called Exemplary antibody No. 1
On to B5, for which the “EC50 of PBMC killing of H929 ko GPRC5D cells (LDH)” value was determined as 0.0867 nM in experiment [1] and 0.017 nM in experiment [3]. The EC50 in experiment [15] turned out to be 53.6 nM; in experiment [4], 11.4 nM; in experiment [7], 256 nM; in experiment [8] it was 14.2 nM; in [12], 80.7 nM; in experiment [16] it was 34.5 nM. The molecule further registered an EC50 in [17] of 54.5 nM. Moreover, the Kd worked out at 13.3 nM with human CD3E&G-His/Free and 9.51 nM in the experiment with cyno CD3E&G-His/Free. The koff with human CD3E&G-His/Free was determined as 0.00859 s⁻¹; in the experiment with cyno CD3E&G-His/Free, 0.00658 s⁻¹. For the same molecule, the kon with human CD3E&G-His/Free was 646000 M⁻¹ s⁻¹; with cyno CD3E&G-His/Free, 692000 M⁻¹ s⁻¹. In addition, the “EC50 of PBMC killing of H929 ko BCMA cells, donor1” value in experiment [6] amounted to 0.00931 nM. Moreover, the “EC50 of PBMC killing of H929 ko BCMA cells (LDH)” value in [9] is 0.00698 nM; in experiment [11], 0.00149 nM. Besides, the “EC50 of PBMC killing of H929 ko GPRC5D cells, donor1” value in [10] was 0.0175 nM. Besides, the binding result with BCMA-R39A (on cells) and with BCMA-R27P (on cells) was “binds” each time.

The term EC50 denotes the concentration giving half of the maximal effect. The Kd is the free concentration of one partner at which half of the binding sites on the other are occupied at equilibrium, for simple one-to-one binding. What is called koff is a measure of how fast the partners let go of each other. One may read the kon as the rate constant with which the complex forms.

The record behind these values is patent EP4725970A1 (Fortvita Biologics Inc., dated 2026).
